Data published in article PMC8599795.
Like-named read-outs stand apart in the source and are kept apart here.

Columns and labels:
Assay in all cases: SPR
[1] = biological target: T1, DEN3-NS1 (NAD3) (Dengue virus 3 Sri Lanka D3/H/IMTSSA-SRI/2000/1266) (UniProt Q6YMS4)
T1 sequence: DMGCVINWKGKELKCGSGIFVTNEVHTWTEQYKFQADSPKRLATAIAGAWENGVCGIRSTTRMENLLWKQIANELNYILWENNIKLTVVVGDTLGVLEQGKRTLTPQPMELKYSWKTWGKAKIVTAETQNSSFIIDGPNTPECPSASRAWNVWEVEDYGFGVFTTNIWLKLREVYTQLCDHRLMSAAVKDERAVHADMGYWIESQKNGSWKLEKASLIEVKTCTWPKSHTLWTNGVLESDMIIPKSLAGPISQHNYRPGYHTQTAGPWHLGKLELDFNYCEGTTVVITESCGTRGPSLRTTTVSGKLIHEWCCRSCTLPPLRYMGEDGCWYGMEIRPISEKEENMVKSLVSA

[2] = biological target: T2, DEN4-NS1 (NAD4) (Dengue virus 4 Dominica/814669/1981) (UniProt P09866)
T2 sequence: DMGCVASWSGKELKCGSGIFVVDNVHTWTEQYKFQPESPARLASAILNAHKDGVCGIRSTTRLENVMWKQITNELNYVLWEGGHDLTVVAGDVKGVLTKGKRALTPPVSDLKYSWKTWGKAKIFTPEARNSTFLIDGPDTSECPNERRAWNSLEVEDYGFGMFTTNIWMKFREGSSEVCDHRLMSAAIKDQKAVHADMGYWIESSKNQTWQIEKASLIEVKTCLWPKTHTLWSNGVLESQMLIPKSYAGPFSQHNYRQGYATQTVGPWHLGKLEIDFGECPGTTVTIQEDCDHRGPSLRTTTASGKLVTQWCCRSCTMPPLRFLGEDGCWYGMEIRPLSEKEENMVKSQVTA

[3] = biological target: T3, DEN2-NS1 (NAD2) (Dengue virus 2 Thailand/16681/84) (UniProt P29990); conditions: N1,N2 = Ds
T3 sequence: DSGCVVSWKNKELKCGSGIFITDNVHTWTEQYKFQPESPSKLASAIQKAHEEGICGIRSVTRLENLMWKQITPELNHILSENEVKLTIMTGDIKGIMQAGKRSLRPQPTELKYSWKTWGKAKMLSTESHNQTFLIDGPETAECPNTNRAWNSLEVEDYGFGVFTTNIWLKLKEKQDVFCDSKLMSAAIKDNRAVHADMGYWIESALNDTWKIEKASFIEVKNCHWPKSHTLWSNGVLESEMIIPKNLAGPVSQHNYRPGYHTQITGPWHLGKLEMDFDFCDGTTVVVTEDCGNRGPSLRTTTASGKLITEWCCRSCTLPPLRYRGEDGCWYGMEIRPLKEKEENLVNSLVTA

Work on “CCGCTTGTCATCTAACCTGGCCATGTGGTACTGTAACGGCTGACAAGCGGCGCGTAGCG [Cont-D3-2-59h]” yielded a Kd [1] of 190 nM.

With “CCGCTTGTCATCTANCCTGGCCNTGTGGTACTGTAACGGCTGACAAGCGGCGCGTAGCG [D3-2-59h (AptD3)]” the Kd ([1]; N = Ds) was 0.057 nM.

For “CGGCGGAGACGTAACGCATATCAAATCAAAACAGCTTAGGGTCCGCCGCGCGTAGCG [Cont-D4-3-57h]”, the Kd [2] was 2 nM.

Sequence “CGGCGGAGACGTAACGCNTATCAAATCNAAACAGCTTAGGGTCCGCCGCGCGTAGCG [D4-3-57h (AptD4)]” has a Kd ([2]; N = Ds) of 0.03 nM.

“CTCCGCTGTCAAACGGNTATCACGGCNACACACCTGCGGACAGCGGAGCGCGTAGCG [D4-1-57h]” gave a Kd ([2]; N = Ds) of 0.029 nM.

With “GACGGTCTACTGGTCCGNCTGGGAACAAGNGGCGGGAGGGANGGGTGTGGGTGCGACAAGCGGAGTAGTTAGACCGTCCGCGTAGCG [D2-1d-87h]” the Kd ([3]; N3 = diol-Pa) was 0.105 nM.

“GGCTGGTCCGNCTGGGAACAAGNGGCGGGAGGGANGGGTGTGGGTGCGACAAGCGGACCAGCCCGCGTAGCG [D2-1d-72h (AptD2)]” showed a Kd ([3]; N3 = diol-Pa) of 0.104 nM.

In the case of “TGATATGGTCTACTGAAGTGTTGTCATCTANCCTGGCCNTGTGGTACTGTAACGGCTGACAAGCGGAGTAGTTAGACC [D3-2-78]”, the Kd ([1]; N = Ds) is reported as 0.041 nM.

Sequence “TGATATGGTCTACTGGAGGAGACGTAACGCNTATCAAATCNAAACAGCTTAGGGTCCGACAAGCGGAGTAGTTAGACC [D4-3-78]” has a Kd ([2]; N = Ds) of 0.034 nM.

For “TGATATGGTCTACTGGTCTCAACGGTTGTCAAACGGNTATCACGGCNACACACCTGCGGACAAGCGGAGTAGTTAGACC [D4-1-78]”, the Kd ([2]; N = Ds) was 0.042 nM.

“TTTTCGCACTCCATGATATGGTCTACTGGTCCGNCTGGGAACAAGNGGCGGGAGGGANGGGTGTGGGTGCGACAAGCGGAGTAGTTAGACCGTCAAA [D2-1d-97]” gave a Kd ([3]; N3 = diol-Pa) of 0.114 nM.

“TTTTCGCACTCCATGATATGGTCTACTGGTCCGNCTGGGAACAAGNGGCGGGAGGGANGGGTGTGGGTGCGACAAGCGGAGTAGTTAGACCGTCAAA [D2-1y-96]” showed a Kd ([3]; N3 = diol-Px) of 0.041 nM.
